{"source": "patent US20240287154A1", "about": "“MC3R AGONIST PEPTIDES” (The Regents of the University of Michigan, priority 2021, published 2024)", "binders": {"B1": {"name": "CTX-1131 (peptide)", "peptide": "H-YV[Nle][dAbu]HFR[dW]D-NH2", "SMILES": "CCCC[C@H](NC(=O)[C@@H](NC(=O)[C@@H](N)Cc1ccc(O)cc1)C(C)C)C(=O)N[C@H](CC)C(=O)N[C@@H](Cc1c[nH]cn1)C(=O)N[C@@H](Cc1ccccc1)C(=O)N[C@@H](CCCNC(=N)N)C(=O)N[C@H](Cc1c[nH]c2ccccc12)C(=O)N[C@@H](CC(=O)O)C(N)=O"}, "B2": {"name": "CTX-1532 (peptide)", "peptide": "Ac-[Nle][dA]HFR[dW][Nle]RFG-OH", "SMILES": "CCCC[C@H](NC(C)=O)C(=O)N[C@H](C)C(=O)N[C@@H](Cc1c[nH]cn1)C(=O)N[C@@H](Cc1ccccc1)C(=O)N[C@@H](CCCNC(=N)N)C(=O)N[C@H](Cc1c[nH]c2ccccc12)C(=O)N[C@@H](CCCC)C(=O)N[C@@H](CCCNC(=N)N)C(=O)N[C@@H](Cc1ccccc1)C(=O)NCC(=O)O"}, "B3": {"name": "CTX-1537 (peptide)", "peptide": "Ac-[Nle][dA]HFR[dW]DRAG-OH", "SMILES": "CCCC[C@H](NC(C)=O)C(=O)N[C@H](C)C(=O)N[C@@H](Cc1c[nH]cn1)C(=O)N[C@@H](Cc1ccccc1)C(=O)N[C@@H](CCCNC(=N)N)C(=O)N[C@H](Cc1c[nH]c2ccccc12)C(=O)N[C@@H](CC(=O)O)C(=O)N[C@@H](CCCNC(=N)N)C(=O)N[C@@H](C)C(=O)NCC(=O)O"}, "B4": {"name": "CTX-1536 (peptide)", "peptide": "Ac-[Nle][dA]HFR[dW]DRPG-OH", "SMILES": "CCCC[C@H](NC(C)=O)C(=O)N[C@H](C)C(=O)N[C@@H](Cc1c[nH]cn1)C(=O)N[C@@H](Cc1ccccc1)C(=O)N[C@@H](CCCNC(=N)N)C(=O)N[C@H](Cc1c[nH]c2ccccc12)C(=O)N[C@@H](CC(=O)O)C(=O)N[C@@H](CCCNC(=N)N)C(=O)N1CCC[C@H]1C(=O)NCC(=O)O"}, "B5": {"name": "CTX-1541 (peptide)", "peptide": "Ac-[Nle][dA]HFR[dW]F-NH2", "SMILES": "CCCC[C@H](NC(C)=O)C(=O)N[C@H](C)C(=O)N[C@@H](Cc1c[nH]cn1)C(=O)N[C@@H](Cc1ccccc1)C(=O)N[C@@H](CCCNC(=N)N)C(=O)N[C@H](Cc1c[nH]c2ccccc12)C(=O)N[C@@H](Cc1ccccc1)C(N)=O"}, "B6": {"name": "CTX-1529 (peptide)", "peptide": "Ac-[Nle][dA]HFR[dW]FRFG-OH", "SMILES": "CCCC[C@H](NC(C)=O)C(=O)N[C@H](C)C(=O)N[C@@H](Cc1c[nH]cn1)C(=O)N[C@@H](Cc1ccccc1)C(=O)N[C@@H](CCCNC(=N)N)C(=O)N[C@H](Cc1c[nH]c2ccccc12)C(=O)N[C@@H](Cc1ccccc1)C(=O)N[C@@H](CCCNC(=N)N)C(=O)N[C@@H](Cc1ccccc1)C(=O)NCC(=O)O"}, "B7": {"name": "CTX-1533 (peptide)", "peptide": "Ac-[Nle][dA]HFR[dW]KRFG-OH", "SMILES": "CCCC[C@H](NC(C)=O)C(=O)N[C@H](C)C(=O)N[C@@H](Cc1c[nH]cn1)C(=O)N[C@@H](Cc1ccccc1)C(=O)N[C@@H](CCCNC(=N)N)C(=O)N[C@H](Cc1c[nH]c2ccccc12)C(=O)N[C@@H](CCCCN)C(=O)N[C@@H](CCCNC(=N)N)C(=O)N[C@@H](Cc1ccccc1)C(=O)NCC(=O)O"}, "B8": {"name": "CTX-1531 (peptide)", "peptide": "Ac-[Nle][dA]HFR[dW][dF]RFG-OH", "SMILES": "CCCC[C@H](NC(C)=O)C(=O)N[C@H](C)C(=O)N[C@@H](Cc1c[nH]cn1)C(=O)N[C@@H](Cc1ccccc1)C(=O)N[C@@H](CCCNC(=N)N)C(=O)N[C@H](Cc1c[nH]c2ccccc12)C(=O)N[C@H](Cc1ccccc1)C(=O)N[C@@H](CCCNC(=N)N)C(=O)N[C@@H](Cc1ccccc1)C(=O)NCC(=O)O"}, "B9": {"name": "CTX-1540 (peptide)", "peptide": "Ac-[Nle][dA]HFR[dW]G-NH2", "SMILES": "CCCC[C@H](NC(C)=O)C(=O)N[C@H](C)C(=O)N[C@@H](Cc1c[nH]cn1)C(=O)N[C@@H](Cc1ccccc1)C(=O)N[C@@H](CCCNC(=N)N)C(=O)N[C@H](Cc1c[nH]c2ccccc12)C(=O)NCC(N)=O"}, "B10": {"name": "CTX-1535 (peptide)", "peptide": "Ac-[Nle][dA]HFR[dW]DKFG-OH", "SMILES": "CCCC[C@H](NC(C)=O)C(=O)N[C@H](C)C(=O)N[C@@H](Cc1c[nH]cn1)C(=O)N[C@@H](Cc1ccccc1)C(=O)N[C@@H](CCCNC(=N)N)C(=O)N[C@H](Cc1c[nH]c2ccccc12)C(=O)N[C@@H](CC(=O)O)C(=O)N[C@@H](CCCCN)C(=O)N[C@@H](Cc1ccccc1)C(=O)NCC(=O)O"}, "B11": {"name": "CTX-1538 (peptide)", "peptide": "Ac-[Nle][dA]HFR[dW]DRFV-OH", "SMILES": "CCCC[C@H](NC(C)=O)C(=O)N[C@H](C)C(=O)N[C@@H](Cc1c[nH]cn1)C(=O)N[C@@H](Cc1ccccc1)C(=O)N[C@@H](CCCNC(=N)N)C(=O)N[C@H](Cc1c[nH]c2ccccc12)C(=O)N[C@@H](CC(=O)O)C(=O)N[C@@H](CCCNC(=N)N)C(=O)N[C@@H](Cc1ccccc1)C(=O)N[C@H](C(=O)O)C(C)C"}, "B12": {"name": "CTX-1534 (peptide)", "peptide": "Ac-[Nle][dA]HFR[dW]DAFG-OH", "SMILES": "CCCC[C@H](NC(C)=O)C(=O)N[C@H](C)C(=O)N[C@@H](Cc1c[nH]cn1)C(=O)N[C@@H](Cc1ccccc1)C(=O)N[C@@H](CCCNC(=N)N)C(=O)N[C@H](Cc1c[nH]c2ccccc12)C(=O)N[C@@H](CC(=O)O)C(=O)N[C@@H](C)C(=O)N[C@@H](Cc1ccccc1)C(=O)NCC(=O)O"}, "B13": {"name": "CTX-1530 (peptide)", "peptide": "Ac-[Nle][dA]HFR[dW][dF]RFG-OH", "SMILES": "CCCC[C@H](NC(C)=O)C(=O)N[C@H](C)C(=O)N[C@@H](Cc1c[nH]cn1)C(=O)N[C@@H](Cc1ccccc1)C(=O)N[C@@H](CCCNC(=N)N)C(=O)N[C@H](Cc1c[nH]c2ccccc12)C(=O)N[C@H](Cc1ccccc1)C(=O)N[C@@H](CCCNC(=N)N)C(=O)N[C@@H](Cc1ccccc1)C(=O)NCC(=O)O"}}, "note": "Non-standard residues stand in square brackets, D forms with d. Nle = CCCC[C@H](N)C(=O)O; dAbu = CC[C@@H](N)C(=O)O"}
{"target": "human MC3R (human, UniProt P41968 1-323)", "sequence (P41968 whole entry)": "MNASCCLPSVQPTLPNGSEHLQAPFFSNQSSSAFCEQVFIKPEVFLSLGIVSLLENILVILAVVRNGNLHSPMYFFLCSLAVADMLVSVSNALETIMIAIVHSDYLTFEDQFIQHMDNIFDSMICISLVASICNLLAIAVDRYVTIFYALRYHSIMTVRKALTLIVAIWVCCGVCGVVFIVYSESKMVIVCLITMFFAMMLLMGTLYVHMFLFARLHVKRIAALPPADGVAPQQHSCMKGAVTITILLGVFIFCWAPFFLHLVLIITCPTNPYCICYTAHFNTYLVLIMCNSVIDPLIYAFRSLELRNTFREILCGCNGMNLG", "assay": "cell-based or functional assay", "units": {"MC3R cAMP (EC50)": "nM"}}
{"binder": "B1", "MC3R cAMP (EC50)": 6.6, "MC3R selectivity (relative to MC4R)": 65}
{"binder": "B2", "MC3R cAMP (EC50)": 10.3, "MC3R selectivity (relative to MC4R)": 184}
{"binder": "B3", "MC3R cAMP (EC50)": 25.5, "MC3R selectivity (relative to MC4R)": 278}
{"binder": "B4", "MC3R cAMP (EC50)": 73, "MC3R selectivity (relative to MC4R)": 72}
{"binder": "B5", "MC3R cAMP (EC50)": 65.2, "MC3R selectivity (relative to MC4R)": 9}
{"binder": "B6", "MC3R cAMP (EC50)": 4.8, "MC3R selectivity (relative to MC4R)": 82}
{"binder": "B7", "MC3R cAMP (EC50)": 14.2, "MC3R selectivity (relative to MC4R)": 314}
{"binder": "B8", "MC3R cAMP (EC50)": 356}
{"binder": "B9", "MC3R cAMP (EC50)": 25.1, "MC3R selectivity (relative to MC4R)": 11}
{"binder": "B10", "MC3R cAMP (EC50)": 6, "MC3R selectivity (relative to MC4R)": 1590}
{"binder": "B11", "MC3R cAMP (EC50)": 7.4, "MC3R selectivity (relative to MC4R)": 1280}
{"binder": "B12", "MC3R cAMP (EC50)": 38.8, "MC3R selectivity (relative to MC4R)": 186}
{"binder": "B13", "MC3R cAMP (EC50)": 289}
{"binder": "Ac-[Nle][dA]HFR[dW]-NH2", "note": "[CTX-1539]", "MC3R cAMP (EC50)": 47.1, "MC3R selectivity (relative to MC4R)": 16}
